Substitutions are numbered along the chain they refer to. Several values for one entry are separate records, joined by “and”; a condition that tells them apart may be missing. Equal entries are not always repeated.

Results on one molecule are retold here after paper PMC7105911 (Journal of Molecular Biology, 2011).

Experiment in all cases: SPR
For orientation: SPR reads the build-up and loss of mass on a sensor chip optically.

Assay [1] has as its target T1, BB_1wnu_001 (backbone grafting 2F5 epitope scaffold on parent PDB 1wnu) (designed scaffold on Pyrococcus …).
T1 chain: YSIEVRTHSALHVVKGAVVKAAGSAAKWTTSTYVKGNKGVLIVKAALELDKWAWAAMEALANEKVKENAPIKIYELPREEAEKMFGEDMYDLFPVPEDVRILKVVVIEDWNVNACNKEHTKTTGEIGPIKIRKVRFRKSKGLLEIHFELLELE

Assay [2] concerns the target T2, BB_2cx5_001 (backbone grafting 2F5 epitope scaffold on parent PDB 2cx5) (designed scaffold on Thermus …).
T2 chain: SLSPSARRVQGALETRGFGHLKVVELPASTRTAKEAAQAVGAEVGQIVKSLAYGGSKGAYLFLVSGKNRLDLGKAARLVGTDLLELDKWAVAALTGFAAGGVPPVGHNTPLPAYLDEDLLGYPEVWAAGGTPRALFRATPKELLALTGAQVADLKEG

Assay [3] concerns the target T3, SC_2cx5 (side-chain grafting 2F5 epitope scaffold on parent PDB 2cx5) (designed scaffold on Thermus …).
T3 chain: T2 chain with A52V, S56E, A76T, T81G, D82P, L86A, A98D

Assay [4] addresses T4, SC_1wnu (side-chain grafting 2F5 epitope scaffold on parent PDB 1wnu) (designed scaffold on Pyrococcus …).
T4 chain: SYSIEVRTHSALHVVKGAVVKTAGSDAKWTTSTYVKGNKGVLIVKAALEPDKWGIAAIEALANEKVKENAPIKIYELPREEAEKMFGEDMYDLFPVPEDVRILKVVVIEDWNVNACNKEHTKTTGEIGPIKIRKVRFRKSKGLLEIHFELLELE

B1: 2F5 monoclonal antibody (2F5 IgG) (antibody, V domains shown)
VH: RITLKESGPPLVKPTQTLTLTCSFSGFSLSDFGVGVGWIRQPPGKALEWLAIIYSDDDKRYSPSLNTRLTITKDTSKNQVVLVMTRVSPVDTATYFCAHRRGPTTLFGVPIARGPVNAMDVWGQGITVTISS
VL: ALQLTQSPSSLSASVGDRITITCRASQGVTSALAWYRQKPGSPPQLLIYDASSLESGVPSRFSGSGSGTEFTLTISTLRPEDFATYYCQQLHFYPHTFGGGTRVDVR
Consider B1, for which the Kd (usually a measure of binding affinity in units of concentration) in assay [1] is 8.3 nM and 8.7 nM; in assay [2], 1.4 nM; in assay [3] it was 40.2 nM and 38.3 nM; in assay [4] it was 91 nM. Besides, the “Kd kinetic, step 1 (conformational change model)” value in assay [4] turned out to be 0.000109 mM. Also, the “Kd kinetic, step 2 (conformational change model)” value in assay [4] amounted to 3800 mM.
